Measurements from PMC5664961.
Blank lines part the entries; values can stand above or below the substance they belong to.

Legend:
[1] = target: 6His-KCTD17 BTB domain (residues G20-K131), N-terminal hexahistidine tag kept (human); experiment: SAXS; BTB domains alone, ~750 µM monomer; 50 mM HEPES, 150 mM NaCl, 0.5 mM TCEP; curves compared with those calculated from the crystal structures
[2] = target: 6His-KCTD17 BTB domain (residues G20-K131), N-terminal hexahistidine tag kept (human); experiment: SEC-MALS; BTB domains alone, injected at 50 µM; Shodex KW-803; 50 mM HEPES pH 7.5, 150 mM NaCl, 1 mM TCEP
[3] = target: 6His-KCTD17 BTB domain (residues G20-K131), N-terminal hexahistidine tag kept (human); experiment: crystal structure; BTB domains alone, sitting-drop vapour diffusion at 20 and 4°C, data at 100 K
[4] = target: 6His-KCTD17 BTB domain (residues G20-K131), N-terminal hexahistidine tag kept (human); experiment: native MS; 6His-KCTD17 at 2 mg/ml exchanged into 50 mM ammonium acetate pH 6.5; electrospray, Agilent 6530 QTOF
[5] = target: 6His-KCTD17 BTB domain (residues G20-K131), N-terminal hexahistidine tag kept (human); experiment: crystal structure; BTB domains alone, sitting-drop vapour diffusion at 20 and 4°C, data at 100 K; remark: listed apart in the source
[6] = target: 6xHis-tagged KCTD17 BTB + CTD multi-domain construct (residues G20-Q220), tag kept (human); experiment: SEC; KCTD17 constructs alone, 6xHis-tagged or tag-cleaved; UV 280 nm traces; various running buffers (pH, salt)
[7] = target: human Cul3 N-terminal domain (NTD, residues M1-L388) with the engineered mutations I342R and L346D (human) (UniProt Q13618); experiment: SEC; KCTD protein alone and mixed with Cul3 NTD at a molar ratio of 1 : 1; UV 280 nm traces; injected at 50 µM; 50 mM HEPES pH 7.5, 150 mM NaCl, 1 mM TCEP
Chain of human Cul3 N-terminal domain (NTD, residues M1-L388) with the engineered mutations I342R and L346D (human) (Q13618 1-388 I342R/L346D): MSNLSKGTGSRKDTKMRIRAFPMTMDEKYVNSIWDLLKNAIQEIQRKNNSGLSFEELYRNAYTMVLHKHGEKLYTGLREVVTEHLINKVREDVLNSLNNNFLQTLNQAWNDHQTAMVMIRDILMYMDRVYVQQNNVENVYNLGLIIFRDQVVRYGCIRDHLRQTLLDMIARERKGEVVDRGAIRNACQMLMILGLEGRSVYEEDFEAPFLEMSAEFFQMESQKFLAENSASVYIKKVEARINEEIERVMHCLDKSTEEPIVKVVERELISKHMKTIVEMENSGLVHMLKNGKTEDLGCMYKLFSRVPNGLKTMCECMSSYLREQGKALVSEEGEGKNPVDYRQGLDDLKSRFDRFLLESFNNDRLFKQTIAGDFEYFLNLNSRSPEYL

[8] = target: KCTD17 BTB + CTD multi-domain construct (residues G20-Q220), tag cleaved (human); experiment: as above
[9] = target: T1, KCTD17 BTB domain (residues G20-K131) as used in ITC (human); experiment: ITC; KCTD17 in the cell, titrated with Cul3 NTD from the syringe; 15°C; 50 mM HEPES pH 7.5, 150 mM NaCl, 1 mM TCEP, 5% glycerol; single-binding site model
T1 sequence (Q8N5Z5 20-131, looked up): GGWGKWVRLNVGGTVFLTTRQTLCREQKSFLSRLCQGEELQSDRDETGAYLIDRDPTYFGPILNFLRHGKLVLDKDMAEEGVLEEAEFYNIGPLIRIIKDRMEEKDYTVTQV

[10] = target: KCTD17 BTB + CTD multi-domain construct (residues G20-Q220) (human); experiment: ITC; KCTD17 in the cell, titrated with Cul3 from the syringe; 15°C; 50 mM HEPES pH 7.5, 150 mM NaCl, 1 mM TCEP, 5% glycerol; single-binding site model
[11] = target: T2, KCTD17 BTB domain (residues G20-K131) (human); experiment: as above
T2 sequence (Q8N5Z5 20-131, looked up): T1 sequence (Q8N5Z5 20-131, looked up)

[12] = target: human SHKBP1 BTB domain (residues G18-S120) (human) (UniProt Q8TBC3); experiment: SEC; KCTD protein alone and mixed with Cul3 NTD at a molar ratio of 1 : 1; UV 280 nm traces; injected at 50 µM; 50 mM HEPES pH 7.5, 150 mM NaCl, 1 mM TCEP

Substance: 6His-KCTD17 BTB domain (residues G20-K131), N-terminal hexahistidine tag kept (domain or fragment)
stoichiometry N [1]: 60
stoichiometry N [2]: 60
stoichiometry N [3]: 60
stoichiometry N [4]: 60
stoichiometry N [5]: 5

Substance: 6xHis-tagged KCTD17 BTB + CTD multi-domain construct (residues G20-Q220), tag kept (domain or fragment)
stoichiometry N [6]: 60

Substance: human Cul3 N-terminal domain (NTD, residues M1-L388) with the engineered mutations I342R and L346D (from UniProt Q13618 1-388) (domain or fragment)
Kd [9]: 7 nM
Ka [10]: 8.66e+07 M⁻¹
Kd [10]: 12 nM
stoichiometry N [10]: 2.3
Ka [11]: 1.41e+08 M⁻¹

Continued, values first:

stoichiometry N (KCTD : Cul3 (5 : 5)) [7]: 1
stoichiometry N [8]: 5
Substance: KCTD17 BTB + CTD multi-domain construct (residues G20-Q220), tag cleaved (domain or fragment)

stoichiometry N [12]: 5
Substance: human SHKBP1 BTB domain (residues G18-S120) (from UniProt Q8TBC3 18-120) (domain or fragment)
